Assay results as given in EP0568622B1.

Target: rat/human corticotropin releasing factor (r/h CRF), 41-residue peptide (rat/human (same molecule))
Assay: method not stated

Kd: 0.1 nM
Substance: recombinant rat CRF-binding protein (rCRF-BP), secreted by transfected COS7 cells
